Patent US7173041B2, “Polyglutamic acid-camptothecin conjugates and methods of preparation” (priority 2000, dated 2007)
“Also recorded” adds a separate entry of the source.

What was measured:
[1] = Maximum tolerated dose (MTD) in mice; assay type: in vivo; conditions: for Murine single dose MTD (IP): mice, loadings as in Table 3
Description: (§1) All injections were given intraperitoneally (IP). […] The MTD is the maximum tolerated equivalent camptothecin dose.

[2] = tested on: B16 melanoma (B-16-F0); test: Tumor growth delay (TGD), subcutaneous B16 melanoma in C57BL/6 mice; assay type: in vivo, murine; conditions: for relative anti-tumor efficacy (comparison in words): B16 model
Description: (§2) Tumors were produced in the […] of the right interscapular region by subcutaneously injecting 1.0×10^5 murine melanoma cells (B-16-F0; ATTC CRL-6322) in a volume of 0.2 ml PBS supplemented with 2% FBS. […] Camptothecin conjugates were dissolved in a 0.1 M Na2HPO4 solution by sonication at 45° C. for 45–60 minutes. Native camptothecins were dissolved in a mixture of 8.3% Cremophor EL/8.3% ethanol in 0.75% saline. All injections were given intraperitoneally (IP). Each treatment group consisted of 10 mice randomly allocated to each group. Tumor volume was calculated according to the formula (length×width×height)/2. Mice with tumors equal to or greater than 2000 mm^3 were euthenized by cervical dislocation. Tumor efficacy of test compounds was determined by calculating the tumor growth delay (TGD): the average time in days for the tumors in the treatment group to reach a fixed volume minus the average time for the tumors in the control group to reach the same volume. An unpaired Student's t-test was done to determine statistical differences. The compounds were tested at different concentrations to determine their MTD. The MTD is the maximum tolerated equivalent camptothecin dose.

[3] = tested on: HT-29 human colon carcinomas; test: Tumor growth delay, HT-29 xenografts in athymic ncr nu/nu mice; conditions: for TGD (days to 500 mm^3) HT-29: PG 50 kD
Description: as §2
(§3) In addition to the above-mentioned models, one other syngeneic model was used viz. LL/2 Lewis lung (ATTC CRL-1642) and 2 xenogeneic models were used viz. human NCI-H460 lung carcinomas (ATTC HTB-177) and HT-29 human colon carcinomas (ATTC HTB-38). In these xenogeneic models instead of immunocompetent C57BL/6 mice, immunocompromised athymic ncr nu/nu mice were used. Except for the number of tumor cells implanted to generate tumors the experimental protocol and procedures were identical to that for the B-16/F0 model.

[4] = tested on: animal tumor models; test: General comparison of PG-camptothecin conjugates in animal tumor models; parameters: species or system mice; conditions: mouse, in vivo
Description: as §1

[5] = Aqueous solubility of PG-camptothecin conjugates; conditions: for Aqueous solubility: % CPT in conjugate (w/w): PG-CPT 14, PG-gly-CPT 37, PG-(10-OAc-CPT) 13, PG-(10-O-CPT) 13, PG-gly-(10-O-CPT) 20, PG-(10-OH-CPT) 19, PG-(9-NH-CPT) 14
[6] = tested on: NCI-H460 human non-small cell lung cancer xenografts; test: NCI-H460 xenografts in female nude mice, dosing every 4th day x4; assay type: in vivo
Description: Female nude mice with 7–8 mm subcutaneous NCI-H460 human non-small cell lung cancer xenografts were treated with PG-gly-CPT on days 1, 5, 9, and 13 at a dose of 40 mg/kg 20(S)-camptothecin per injection. The tested dose of 40 mg eq. […] Although there were no deaths, weight loss was approximately 20% of the starting weight. The absolute tumor growth delay (defined as difference in days for tumors to grow from 8 mm to 12 mm between the treated and the control groups) was 43 days for the PG-gly-CPT treated mice.

[7] = tested on: human NCI-H460 lung carcinomas; test: Tumor growth delay, NCI-H460 xenografts in athymic ncr nu/nu mice; assay type: in vivo; conditions: PG 50 kD
Description: as §2, §3

[8] = tested on: NCI-H322 human lung cancer; test: NCI-H322 human lung cancer s.c. in female nude mice; assay type: in vivo; conditions: 33 kD, 37% loaded, i.v. days 9, 13, 17, 21 at 40 mg/kg 20(S)-camptothecin equivalent
Description: The antitumor activity of PG-gly-CPT (33 kD, 37% loaded) on NCI-H322 (ATTC CRL-5806) human lung cancer inoculated s.c. in female nude mice was studied. The drug was injected i.v. on days 9, 13, 17 and 21 at a 20(S)-camptothecin equivalent dose of 40 mg/kg when tumors measured 7–8 mm in diameter. The TGD was 40 days.

[9] = tested on: NCI-H1299 human lung cancer cells; test: NCI-H1299 human lung cancer s.c. in female nude mice; conditions: 30 mg eq. 20(S)-camptothecin every 4th day x4
Description: 20(S)-camptothecin/kg in the prior experiment in nude mice, the dose was lowered to 30 mg eq. 20(S)-camptothecin every 4th day×4.

[10] = Table 4, PG 50 kD (PG-CPT: 33 kD)
[11] = second experiment, i.p., same schedule
[12] = CPT loading 19%, dose 33 mg CPT/kg
[13] = CPT loading 33%, dose 38 mg CPT/kg
[14] = CPT loading 39%, dose 40 mg CPT/kg
[15] = CPT loading 47%, dose 40 mg CPT/kg
[16] = 40 mg eq. 20(S)-camptothecin/kg every 4th day x4
[17] = CPT loading 30%, dose 34 mg CPT/kg

PG-(2-O-acetyl)-CPT
MTD [1, 10]: ≧80 mg CPT/kg | TGD (days to 500 mm^3) B16 ([2]; CPT loading 15%, dose 80 mg CPT/kg, PG 50 kD): 3.8 days

PG-(4-NH-butyryl)-CPT
MTD [1, 10]: ≧80 mg CPT/kg | TGD (days to 500 mm^3) B16 ([2]; CPT loading 32%, dose 80 mg CPT/kg, PG 50 kD): 0.9 days

PG-(4-O-butyryl)-CPT
MTD [1, 10]: ~36 mg CPT/kg | TGD (days to 500 mm^3) B16 ([2]; CPT loading 32%, dose 37 mg CPT/kg, PG 50 kD): 2.8 days | TGD (days to 500 mm^3) HT-29 ([3]; CPT loading 24%, dose 36 mg CPT/kg): 13.1 days

PG-(9-NH-CPT)
MTD ([1]; mouse, in vivo): > 25 mg eq. 20(S)-9-aminocamptothecin/kg | Murine single dose MTD (IP) [1]: >25 mg eq. CPT/kg | overall efficacy, tolerability and solubility (in words) [4]: active | Aqueous solubility [5]: 7000 µg/mL

PG-(10-O-CPT)
Murine single dose MTD (IP) [1]: 50 mg eq. CPT/kg | Aqueous solubility [5]: 10000 µg/mL

PG-(10-OAc-CPT)
Murine single dose MTD (IP) [1]: 10–20 mg eq. CPT/kg | TGD ([2]; 50 mg eq. 20(S)-10-hydroxycamptothecin/kg, p<0.01 compared to control): 5.3 days | relative anti-tumor efficacy (comparison in words) [2]: appeared more active at 50 mg eq. 20(S)-10-hydroxycamptothecin/kg than PG-gly-(10-O-CPT) | aqueous solubility / solution behaviour (in words) [5]: solution was very viscous | Aqueous solubility [5]: 10000 µg/mL | time after which the compound precipitated out of solution ([5]; dosing solution): approx. 30 min

PG-(10-OH-CPT)
Murine single dose MTD (IP) [1]: >50 mg eq. CPT/kg | relative anti-tumor efficacy (comparison in words) [2]: not as effective as the PG-(10-OAc-CPT) or the PG-gly-(10-OH-CPT) | Aqueous solubility [5]: >10000 µg/mL

PG-(β-ala)-CPT
MTD [1, 10]: ≧67 mg CPT/kg | TGD (days to 500 mm^3) B16 ([2]; CPT loading 31%, dose 67 mg CPT/kg, PG 50 kD): 1.1 days

PG-(γ-glu)-CPT
MTD [1, 10]: ≧54 mg CPT/kg | TGD (days to 500 mm^3) B16 ([2]; CPT loading 21%, dose 54 mg CPT/kg, PG 50 kD): 0.8 days

PG-CPT
MTD [1, 10]: ≧80 mg CPT/kg | Murine single dose MTD (IP) [1]: 60–80 mg eq. CPT/kg | TGD (days to 500 mm^3) B16 ([2]; CPT loading 20%, dose 80? mg CPT/kg, PG 33 kD): 4.0 days | toxicity observations [6, 11]: without observable toxicity | tumor growth delay [6, 11]: substantial growth delay

PG-ala-CPT
MTD [1, 10]: ≧73 mg CPT/kg | TGD (days to 500 mm^3) B16 ([2]; CPT loading 20%, dose 73 mg CPT/kg, PG 50 kD): 2.2 days

PG-gly-(10-O-CPT)
Aqueous solubility [5]: >10000 µg/mL

PG-gly-(10-OH-CPT)
relative anti-tumor efficacy (comparison in words) [2]: approximately twice as efficacious as PG-gly-(7-Et-10-OH-CPT)

PG-gly-CPT
MTD in male ncr nu/nu mice ([1]; PG 50 kD, (mono) glycine linker, 35–37% 20(S)-camptothecin): 40 mg/kg 20(S)-camptothecin equivalents | MTD [1, 10]: ~40 mg CPT/kg | Murine single dose MTD (IP) [1]: 60–80 mg eq. CPT/kg | TGD (days to 500 mm^3) B16 ([2]; CPT loading 32%, dose 35 mg CPT/kg, PG 50 kD): 3.3 days | TGD (days to 500 mm^3) HT-29 [3, 12]: 4.1 days | TGD (days to 500 mm^3) HT-29 ([3]; CPT loading 33%, dose 33 mg CPT/kg): 11.9 days | TGD (days to 500 mm^3) HT-29 [3, 13]: 20.3 days | TGD (days to 500 mm^3) HT-29 [3, 14]: 25.8 days | TGD (days to 500 mm^3) HT-29 [3, 15]: 5.8 days | tolerability of repeated dosing ([3]; ip, 4 times with a weekly interval, total dose 3 times the single dose): very well tolerated | TGD (days to 500 mm^3) NCI-H460 [7, 13]: 15.8 days | TGD (days to 500 mm^3) NCI-H460 [7, 14]: 38.5 days | TGD (days to 500 mm^3) NCI-H460 [7, 15]: 6.5 days | toxicity observations [6, 16]: no deaths; also recorded: modestly exceeded the MTD | weight loss, of the starting weight [6, 16]: approximately 20% | absolute tumor growth delay (tumors to grow from 8 mm to 12 mm, treated vs control) ([6]; 40 mg/kg 20(S)-camptothecin per injection, days 1, 5, 9, 13): 43 days | TGD [8]: 40 days | TGD [9]: 32 days | tolerability [9]: well-tolerated

PG-gly-gly-CPT
MTD [1, 10]: ≧33 mg CPT/kg | TGD (days to 500 mm^3) HT-29 [3, 12]: 4.5 days

PG-gly-gly-gly-CPT
MTD [1, 10]: ≦34 mg CPT/kg | TGD (days to 500 mm^3) HT-29 [3, 12]: 6.9 days | TGD (days to 500 mm^3) HT-29 [3, 17]: 28.4 days | TGD (days to 500 mm^3) NCI-H460 [7, 17]: 38.5 days
